The values that follow come from FireProtDB (doi:10.1021/bi00164a007).

The conditions of this data set: Saccharomyces cerevisiae (strain ATCC 204508 / S288c), CD, reversible: yes; for denaturant m value / denaturant midpoint (higher = more stable) / unfolding free energy: 27 °C, GdnHCl.
Where [1] appears, read: pH 6, Thermal, Sodium phosphate 50 mM.
Setting [2] is: pH 7.2, Potassium phosphate 50 mM.
The mark [3] stands for this setting: pH 4.6, glycine 40 mM, structure 1YCC.
[4] abbreviates: pH 4.6, Thermal, Sodium acetate 50 mM, structure 1YCC.
The mark [5] stands for this setting: pH 6, Thermal, Sodium phosphate 50 mM, structure 1YCC.
The mark [6] stands for this setting: pH 7.2, Potassium phosphate 50 mM, structure 1YCC.

Sequence of Cytochrome c isoform 1 V26C, P00044 (P00044 whole entry V26C, canonical isoform): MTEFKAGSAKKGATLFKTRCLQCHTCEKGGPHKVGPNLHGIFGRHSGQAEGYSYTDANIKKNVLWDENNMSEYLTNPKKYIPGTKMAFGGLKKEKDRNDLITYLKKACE
Sequence of Cytochrome c isoform 1 wild type, P00044 (P00044 whole entry, canonical isoform): as the sequence (P00044 whole entry V26C, canonical isoform) above, with C26V counted along it

On to “Cytochrome c isoform 1 wild type, P00044”, for which, under setting [1], the Tm (in general, the temperature at the midpoint of the melting transition) came to 51.7 °C and the “unfolding enthalpy (van 't Hoff)” value is 84.5 kcal/mol. In addition, under setting [2], the denaturant m value came out at 4.6 kcal/mol/M, the “denaturant midpoint (higher = more stable)” value (shortened to “denaturant midpoint”) was 0.9 M and the unfolding free energy worked out at 4.1 kcal/mol.
Turning to Cytochrome c isoform 1 V26C, P00044, under setting [3], the denaturant m value stood at 2.7 kcal/mol/M, the “denaturant midpoint” value was determined as 1.1 M and the unfolding free energy is 2.9 kcal/mol. For the same substance, under setting [4], the Tm turned out to be 53.4 °C and the “unfolding enthalpy (van 't Hoff)” value is 64.5 kcal/mol. Moreover, under setting [5], the Tm amounted to 58.5 °C; the “change of melting temperature, mutant - wild type (higher = more stable)” value turned out to be 6.8 °C; the “unfolding enthalpy (van 't Hoff)” value was determined as 63.8 kcal/mol. Moreover, under setting [6], the denaturant m value is 2.6 kcal/mol/M, the “denaturant midpoint” value stood at 1.2 M and the unfolding free energy was 3 kcal/mol.
